From doi:10.1101/520460
Read-outs that look alike come from different tables or passages of the source.

Experiments:
[1] = target: subtilisin-treated microtubules (C-terminal tails of α- and β-tubulin removed) (bovine) (UniProt Q6B856)
[2] = target: paclitaxel stabilized microtubules (polymerized bovine brain tubulin) (bovine) (UniProt Q6B856); assay: co-sedimentation
[3] = target: paclitaxel stabilized microtubules (polymerized bovine brain tubulin) (bovine) (UniProt Q6B856); assay: co-sedimentation; remark: listed apart in the source
[4] = target: paclitaxel stabilized microtubules (polymerized bovine brain tubulin) (bovine) (UniProt Q6B856); assay: co-sedimentation; remark: listed apart in the source

paclitaxel stabilized microtubules (polymerized bovine brain tubulin) (bovine), sequence (Q6B856 whole entry, looked up): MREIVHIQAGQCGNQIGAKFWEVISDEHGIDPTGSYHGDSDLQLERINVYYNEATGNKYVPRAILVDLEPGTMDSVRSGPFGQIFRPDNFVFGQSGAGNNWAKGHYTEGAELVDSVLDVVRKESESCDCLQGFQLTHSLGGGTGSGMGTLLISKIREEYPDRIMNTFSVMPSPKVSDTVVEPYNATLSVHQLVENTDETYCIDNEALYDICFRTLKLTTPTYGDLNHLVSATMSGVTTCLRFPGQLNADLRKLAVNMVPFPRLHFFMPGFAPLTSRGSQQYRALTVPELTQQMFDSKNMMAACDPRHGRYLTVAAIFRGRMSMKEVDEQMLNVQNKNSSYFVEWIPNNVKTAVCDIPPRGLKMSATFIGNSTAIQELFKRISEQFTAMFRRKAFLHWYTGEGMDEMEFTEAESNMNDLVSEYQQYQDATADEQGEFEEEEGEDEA
subtilisin-treated microtubules (C-terminal tails of α- and β-tubulin removed) (bovine), sequence (Q6B856 whole entry, looked up): as above

catalytic domain plus the putative neck linker of human kinesin-like DNA-binding protein (KID), Gly5-Leu379 (domain or fragment)
K0.5,S-MT of the steady-state ATPase on subtilisin treated microtubules [1]: 1.1 µM | Kd [2]: 0.5 µM | Kd [3]: 0.11 µM | Kd [4]: 0.16 µM
